Measurements reported in publication PMC7246297.

B1: Aptamer n.c. (33 nt) (ssDNA)
DNA: GCAATGGTACGGTACTTCCGGATGCGGAAACTG
B2: N Aptamer 3 (57 nt) (ssDNA)
DNA: GCAATGGTACGGTACTTCCGGATGCGGAAACTGGCTAATTGGTGAGGCTGGGGCGGT
B3: N Aptamer 1 (88 nt) (ssDNA)
DNA: GCAATGGTACGGTACTTCCGGATGCGGAAACTGGCTAATTGGTGAGGCTGGGGCGGTCGTGCAGCAAAAGTGCACGCTACTTTGCTAA
B4: N Aptamer 2 (78 nt) (ssDNA)
DNA: GCAATGGTACGGTACTTCCGGATGCGGAAACTGGCTAATTGGTGAGGCTGGGGCGGTCGTGCAGCAAAAGTGCACGCT

How the values were obtained:
Assay in all cases: ELAA
Nucleocapsid (N) protein = Nucleocapsid (N) protein (SARS-CoV-2, UniProt P0DTC9 1-419)
[1] = biological target: 3C-like protease (3CLpro) (SARS-CoV-2, UniProt P0DTD1 3264-3569)
[2] = biological target: Spike receptor-binding domain (S-RBD-Fc) (SARS-CoV-2, UniProt P0DTC2 319-541)

Binder	binding result (Nucleocapsid (N) protein)	binding result [1]	binding result [2]
B1	no binding	no binding	no binding
B2	binds		
B3	binds		
B4	binds		
